Laboratory results taken from US20240189392A1 (AMBRX, published 2024).
Where “and” joins values, the source holds several entries; their conditions need not be identical. Equal entries are not always repeated. Positions of bridges follow the written chain, without caps; N, C: chain ends. Chains are numbered I, II in the order given. No end group written: not given here.

Key:
Test in all cases: cell-based or functional assay
human RXFP1 [1] = target: T1, human RXFP1 (human, UniProt Q9HBX9 1-757)
T1 sequence (looked up): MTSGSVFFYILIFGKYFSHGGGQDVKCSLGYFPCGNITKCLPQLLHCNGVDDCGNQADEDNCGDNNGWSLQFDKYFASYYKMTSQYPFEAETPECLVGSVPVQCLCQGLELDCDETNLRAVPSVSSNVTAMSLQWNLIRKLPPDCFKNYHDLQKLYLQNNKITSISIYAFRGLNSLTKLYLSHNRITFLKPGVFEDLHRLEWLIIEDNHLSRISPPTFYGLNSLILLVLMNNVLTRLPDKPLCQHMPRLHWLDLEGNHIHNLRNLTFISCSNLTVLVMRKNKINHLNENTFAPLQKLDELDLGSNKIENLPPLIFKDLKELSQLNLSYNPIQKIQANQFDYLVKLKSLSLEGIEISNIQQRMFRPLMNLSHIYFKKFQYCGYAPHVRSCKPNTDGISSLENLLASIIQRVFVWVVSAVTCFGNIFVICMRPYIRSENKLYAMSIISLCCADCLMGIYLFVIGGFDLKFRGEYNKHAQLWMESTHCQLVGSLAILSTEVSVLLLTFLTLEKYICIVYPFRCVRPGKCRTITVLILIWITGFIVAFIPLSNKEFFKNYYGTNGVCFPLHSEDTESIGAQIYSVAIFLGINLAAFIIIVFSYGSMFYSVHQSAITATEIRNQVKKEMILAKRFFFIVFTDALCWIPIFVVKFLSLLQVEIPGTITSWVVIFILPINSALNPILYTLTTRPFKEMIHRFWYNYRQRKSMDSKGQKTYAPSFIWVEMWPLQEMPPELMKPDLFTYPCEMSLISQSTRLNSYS

dog RXFP1 = dog RXFP1 (dog)
rat RXFP1 = target: T2, rat RXFP1 (rat, UniProt Q6R6I6 1-758)
T2 sequence (looked up): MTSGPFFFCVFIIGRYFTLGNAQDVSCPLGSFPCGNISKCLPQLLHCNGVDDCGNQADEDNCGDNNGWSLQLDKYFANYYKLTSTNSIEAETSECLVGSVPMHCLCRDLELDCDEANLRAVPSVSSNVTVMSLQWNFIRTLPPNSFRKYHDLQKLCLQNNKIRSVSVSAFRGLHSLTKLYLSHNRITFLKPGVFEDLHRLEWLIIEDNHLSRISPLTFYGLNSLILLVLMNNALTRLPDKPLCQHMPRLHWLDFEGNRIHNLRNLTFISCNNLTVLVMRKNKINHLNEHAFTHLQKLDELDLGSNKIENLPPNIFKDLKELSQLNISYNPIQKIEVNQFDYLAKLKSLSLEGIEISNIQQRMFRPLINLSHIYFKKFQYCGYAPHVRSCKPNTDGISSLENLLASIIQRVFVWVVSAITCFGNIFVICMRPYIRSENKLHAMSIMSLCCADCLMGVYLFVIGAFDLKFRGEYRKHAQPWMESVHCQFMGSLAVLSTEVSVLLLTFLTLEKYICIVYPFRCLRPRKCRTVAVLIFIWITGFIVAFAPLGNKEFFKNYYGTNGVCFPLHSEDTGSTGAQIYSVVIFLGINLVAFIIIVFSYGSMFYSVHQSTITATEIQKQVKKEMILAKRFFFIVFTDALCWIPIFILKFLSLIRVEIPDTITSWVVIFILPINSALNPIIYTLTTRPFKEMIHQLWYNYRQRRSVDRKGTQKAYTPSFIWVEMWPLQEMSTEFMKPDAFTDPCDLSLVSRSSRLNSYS

mouse RXFP1 = target: T3, mouse RXFP1 (mouse, UniProt Q6R6I7 1-758)
T3 sequence (looked up): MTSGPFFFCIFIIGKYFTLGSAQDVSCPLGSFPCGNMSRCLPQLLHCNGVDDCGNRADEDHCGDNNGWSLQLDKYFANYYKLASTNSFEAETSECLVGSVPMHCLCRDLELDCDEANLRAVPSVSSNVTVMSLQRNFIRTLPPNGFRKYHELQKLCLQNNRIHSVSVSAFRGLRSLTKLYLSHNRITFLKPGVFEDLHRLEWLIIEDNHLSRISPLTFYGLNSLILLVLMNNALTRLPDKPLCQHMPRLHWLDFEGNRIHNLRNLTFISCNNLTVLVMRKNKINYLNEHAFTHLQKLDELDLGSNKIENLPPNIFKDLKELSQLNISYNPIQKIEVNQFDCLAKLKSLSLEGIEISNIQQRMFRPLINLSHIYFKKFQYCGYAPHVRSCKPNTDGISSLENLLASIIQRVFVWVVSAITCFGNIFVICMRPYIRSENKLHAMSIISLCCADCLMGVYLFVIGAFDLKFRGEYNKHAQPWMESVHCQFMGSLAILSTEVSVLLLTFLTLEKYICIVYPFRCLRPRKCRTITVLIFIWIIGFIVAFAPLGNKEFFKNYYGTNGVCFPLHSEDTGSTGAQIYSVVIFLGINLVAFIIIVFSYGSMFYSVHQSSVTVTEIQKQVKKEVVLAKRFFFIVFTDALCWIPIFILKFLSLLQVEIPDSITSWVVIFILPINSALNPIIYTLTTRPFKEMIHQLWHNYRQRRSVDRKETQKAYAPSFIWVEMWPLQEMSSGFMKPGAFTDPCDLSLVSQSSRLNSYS

human RXFP4 = human RXFP4 (human, UniProt Q8TDU9 1-374)
Chain of human RXFP4 (Q8TDU9 whole entry): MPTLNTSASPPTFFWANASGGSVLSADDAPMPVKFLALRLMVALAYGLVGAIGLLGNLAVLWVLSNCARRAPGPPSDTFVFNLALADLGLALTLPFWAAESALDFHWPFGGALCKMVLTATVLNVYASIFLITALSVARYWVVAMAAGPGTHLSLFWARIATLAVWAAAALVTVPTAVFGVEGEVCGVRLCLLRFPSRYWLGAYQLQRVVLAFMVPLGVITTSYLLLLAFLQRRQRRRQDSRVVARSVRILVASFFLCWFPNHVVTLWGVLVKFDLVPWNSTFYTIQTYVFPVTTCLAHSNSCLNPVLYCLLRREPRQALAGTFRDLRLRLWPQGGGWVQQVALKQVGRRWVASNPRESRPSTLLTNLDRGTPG

cynomolgus monkey RXFP1 = target: T4, cynomolgus monkey RXFP1 (cynomolgus monkey, UniProt H9ERA2 1-757 (rhesus entry))
T4 sequence: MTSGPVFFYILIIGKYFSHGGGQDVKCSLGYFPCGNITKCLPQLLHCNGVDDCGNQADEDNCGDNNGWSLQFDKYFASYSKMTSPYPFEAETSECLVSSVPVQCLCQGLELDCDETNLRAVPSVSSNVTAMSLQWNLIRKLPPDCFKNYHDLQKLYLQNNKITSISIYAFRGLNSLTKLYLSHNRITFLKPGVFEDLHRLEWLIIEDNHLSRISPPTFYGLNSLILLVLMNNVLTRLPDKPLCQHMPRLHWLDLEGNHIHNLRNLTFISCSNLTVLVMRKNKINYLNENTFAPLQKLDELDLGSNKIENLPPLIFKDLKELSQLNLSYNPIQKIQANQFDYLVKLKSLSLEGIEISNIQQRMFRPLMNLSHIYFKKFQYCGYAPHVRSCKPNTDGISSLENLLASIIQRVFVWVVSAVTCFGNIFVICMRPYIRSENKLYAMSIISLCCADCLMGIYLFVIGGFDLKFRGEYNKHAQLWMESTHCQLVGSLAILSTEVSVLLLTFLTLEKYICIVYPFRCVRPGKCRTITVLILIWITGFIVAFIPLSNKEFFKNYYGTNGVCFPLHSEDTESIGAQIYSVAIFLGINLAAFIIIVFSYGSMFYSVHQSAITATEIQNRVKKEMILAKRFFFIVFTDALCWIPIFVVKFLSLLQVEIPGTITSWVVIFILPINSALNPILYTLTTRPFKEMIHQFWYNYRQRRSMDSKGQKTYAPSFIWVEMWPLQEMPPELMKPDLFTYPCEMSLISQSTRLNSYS

human RXFP3 = target: T5, human RXFP3 (human, UniProt Q9NSD7 1-469)
T5 sequence (looked up): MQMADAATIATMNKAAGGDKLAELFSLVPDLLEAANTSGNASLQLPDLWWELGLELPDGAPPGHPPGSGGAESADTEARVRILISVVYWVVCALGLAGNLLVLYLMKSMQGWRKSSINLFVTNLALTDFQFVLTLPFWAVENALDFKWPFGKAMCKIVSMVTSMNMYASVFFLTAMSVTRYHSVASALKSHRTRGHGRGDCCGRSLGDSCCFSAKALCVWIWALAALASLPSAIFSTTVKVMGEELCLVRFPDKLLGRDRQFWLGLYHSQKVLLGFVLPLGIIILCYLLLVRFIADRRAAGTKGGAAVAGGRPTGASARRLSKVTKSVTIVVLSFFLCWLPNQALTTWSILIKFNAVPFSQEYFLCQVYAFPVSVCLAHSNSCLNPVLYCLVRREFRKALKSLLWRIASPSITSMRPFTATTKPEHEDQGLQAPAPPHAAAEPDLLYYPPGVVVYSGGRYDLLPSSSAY

human RXFP1 [2] = target: T1, human RXFP1; remark: listed apart in the source

B1: wild-type relaxin (human relaxin 2) (ligand)
chain 1: QLYSALANKCCHVGCTKRSLARFC
chain 2: DSWMEEVIKLCGRELVRAQIAICGMSTWS
modifications: disulfide I:10-I:15, I:11-II:11, I:24-II:23
B1 was tested, and the “Functional Assay Raw EC50 Values [ng/mL]; cAMP increase in THP-1 cells, 11/4/2010” value (human RXFP1 [1]) was 1.5 ng/mL, the “Functional Assay Raw EC50 Values [ng/mL]; cAMP increase in THP-1 cells, 11/5/2010” value (human RXFP1 [1]) was 1.5 ng/mL and 1 ng/mL and the “cAMP Assay EC50 (nM), dog RXFP1/CHO-K1 cells” value (dog RXFP1) was 0.56 nM. The “cAMP Assay EC50 (nM), rat RXFP1/CHO-K1 cells” value (rat RXFP1) was 0.03 nM, the “cAMP Assay EC50 (nM), mouse RXFP1/CHO-K1 cells” value (mouse RXFP1) was 0.1 nM and the “cAMP Assay EC50 (nM), inhibition of forskolin-induced cAMP, human RXFP4/CHO-K1 cells” value (human RXFP4) was greater than 3000 nM. For the same binder, the “cAMP Assay EC50 (nM), cyno RXFP1/CHO-K1 cells” value (cynomolgus monkey RXFP1) was 0.06 nM, the “cAMP Assay EC50 (nM), inhibition of forskolin-induced cAMP, human RXFP3/CHO-K1 cells” value (human RXFP3) was greater than 3000 nM and the “cAMP Assay EC50 (nM), THP-1 cells” value (human RXFP1 [2]) was 0.3 nM. The “cAMP Assay EC50 (nM), hRXFP1/CHO-K1 cells” value (human RXFP1 [2]) was 0.1 nM.
